Measured values from article PMC5682033, “An Oleuropein β-Glucosidase from Olive Fruit Is Involved in Determining the Phenolic Composition of Virgin Olive Oil” (Frontiers in Plant Science, 2017).

Substrate: C/C=C1/[C@H](O[C@@H]2O[C@H](CO)[C@@H](O)[C@H](O)[C@H]2O)OC=C(C(=O)OC)[C@H]1CC(=O)OCCc1ccc(O)c(O)c1
Assay: HPLC determination of hydrolysed oleuropein
Assay type: biochemical, Olea europaea
Details: free purified recombinant enzyme; standard assay

B1: OepGLU (recombinant olive β-glucosidase) (Olea europaea) (protein)
chain: MDIQSNVLTITSGSSPTDTSSNGQAAKSTKERIKRSDFPSDFVFGAATASYQVEGAWNEGGKGMSNWDYFTQSQPGGISDFSNGTIAIDHFNMFKDDVVVMKKLGLKAYRFSLSWPRILPGGRLCHGVSKEGVQFYNDLIDALLAADIEPYITIFHWDIPQCLQLEYGGFLHERVVQDFIEYSEICFWEFGDRVKYWITLNEPWSFTVQGYVAGAFPPNRGVTPKDTEETKKHARLHRGGGKLLTAFKYGNPGTEPYKVAHNLILCHAHAVDIYRTKYQESQGGKIGITNCISWNEPLTDSQEDKDAATRGNDFMLGWFVEPVVTGEYPESMIKNVGDRLPKFSEKEEKLVKGSYDFLGINYYTSTYTSDDPTKPTTDSYLTDSRTKTSHERNKVPIGAQAGSDWLYIVPWGIYRVMVDMKKRYNDPVIYITENGVDEVNDKSKTSTEALKDDIRIHYHQEHLYYLKLAMDQGVNLKGYFIWSLFDNFEWAAGFSVRFGVMYVDYANGRYTRLPKRSAVWWRNFLTKPTAVPLKNEPEKSEDRRKRLRGST
**Q.** How did the Km turn out when B1 was run?
**A.** 26.8 mM
